# Positions count from the first letter of the chain named. Names and notes keep the numbering of the source.
# T1: CgAUS (aurone synthase from Coreopsis grandiflora) (Coreopsis grandiflora, UniProt A0A075DN54)
# T1 construct: recombinant from E. coli, purified to homogeneity
# T1 sequence (A0A075DN54 86-602): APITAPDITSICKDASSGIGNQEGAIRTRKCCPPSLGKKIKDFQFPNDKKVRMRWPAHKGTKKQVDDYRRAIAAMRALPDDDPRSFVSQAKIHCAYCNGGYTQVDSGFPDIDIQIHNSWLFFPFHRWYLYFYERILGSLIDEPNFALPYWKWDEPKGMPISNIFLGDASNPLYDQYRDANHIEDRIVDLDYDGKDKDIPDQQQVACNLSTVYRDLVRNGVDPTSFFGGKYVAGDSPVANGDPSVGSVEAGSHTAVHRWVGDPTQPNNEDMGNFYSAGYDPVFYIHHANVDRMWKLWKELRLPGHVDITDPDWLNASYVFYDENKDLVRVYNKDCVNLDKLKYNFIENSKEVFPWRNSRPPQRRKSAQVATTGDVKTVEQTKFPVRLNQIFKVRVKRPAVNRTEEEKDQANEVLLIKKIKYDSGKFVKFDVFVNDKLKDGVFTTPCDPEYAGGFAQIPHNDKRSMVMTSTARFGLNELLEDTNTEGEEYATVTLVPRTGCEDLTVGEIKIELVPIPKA
# T2: CgAUS (aurone synthase from Coreopsis grandiflora) (Coreopsis grandiflora, UniProt A0A075DN54, C182S)
# T2 construct: recombinant from E. coli, purified to homogeneity
# T2 sequence (A0A075DN54 86-602 C182S): T1 sequence (A0A075DN54 86-602) with C97S
# T3: CgAUS (aurone synthase from Coreopsis grandiflora) (Coreopsis grandiflora, UniProt A0A075DN54, C182S/T338D/R342D)
# T3 construct: recombinant from E. coli, purified to homogeneity
# T3 sequence (A0A075DN54 86-602 C182S/T338D/R342D): T1 sequence (A0A075DN54 86-602) with C97S, T253D, R257D
# T4: CgAUS (aurone synthase from Coreopsis grandiflora) (Coreopsis grandiflora, UniProt A0A075DN54, R342D)
# T4 construct: recombinant from E. coli, purified to homogeneity
# T4 sequence (A0A075DN54 86-602 R342D): T1 sequence (A0A075DN54 86-602) with R257D
# T5: CgAUS (aurone synthase from Coreopsis grandiflora) (Coreopsis grandiflora, UniProt A0A075DN54, T338D)
# T5 construct: recombinant from E. coli, purified to homogeneity
# T5 sequence (A0A075DN54 86-602 T338D): T1 sequence (A0A075DN54 86-602) with T253D
# T6: CgAUS (aurone synthase from Coreopsis grandiflora) (Coreopsis grandiflora, UniProt A0A075DN54, T338D/R342D)
# T6 construct: recombinant from E. coli, purified to homogeneity
# T6 sequence (A0A075DN54 86-602 T338D/R342D): T1 sequence (A0A075DN54 86-602) with T253D, R257D
# B1: CgAUS (aurone synthase from Coreopsis grandiflora) (Coreopsis grandiflora; C182S) (protein)
# chain: T1 sequence (A0A075DN54 86-602) with C97S
# notes: recombinant from E. coli, purified to homogeneity
# B2: CgAUS (aurone synthase from Coreopsis grandiflora) (Coreopsis grandiflora; R342D/T338D) (protein)
# chain: T1 sequence (A0A075DN54 86-602) with T253D, R257D
# notes: as for B1
# B3: CgAUS (aurone synthase from Coreopsis grandiflora) (Coreopsis grandiflora; C182S/R342D/T338D) (protein)
# chain: T1 sequence (A0A075DN54 86-602) with C97S, T253D, R257D
# notes: as for B1
# B4: CgAUS (aurone synthase from Coreopsis grandiflora) (Coreopsis grandiflora; R342D) (protein)
# chain: T1 sequence (A0A075DN54 86-602) with R257D
# notes: as for B1
# B5: CgAUS (aurone synthase from Coreopsis grandiflora) (Coreopsis grandiflora; T338D) (protein)
# chain: T1 sequence (A0A075DN54 86-602) with T253D
# notes: as for B1
# Experiments:
# [1] = target: T1, CgAUS (aurone synthase from Coreopsis grandiflora); assay: enzyme kinetics, diphenolase activity; format: biochemical; details: type-III copper enzyme, copper content 46.1%; read-out: Dopamine / K m
# Source text: (§1) enzyme kinetics, diphenolase activity on CgAUS (aurone synthase from Coreopsis grandiflora)
# [2] = target: T2, CgAUS (aurone synthase from Coreopsis grandiflora); assay: enzyme kinetics, diphenolase activity; format: biochemical; details: type-III copper enzyme; read-out: Dopamine / K m
# Source text: as §1
# [3] = target: T3, CgAUS (aurone synthase from Coreopsis grandiflora); assay: enzyme kinetics, diphenolase activity; format: biochemical; details: type-III copper enzyme; read-out: Dopamine / K m
# Source text: as §1
# [4] = target: T4, CgAUS (aurone synthase from Coreopsis grandiflora); assay: enzyme kinetics, diphenolase activity; format: biochemical; details: type-III copper enzyme; read-out: Dopamine / K m
# Source text: as §1
# [5] = target: T5, CgAUS (aurone synthase from Coreopsis grandiflora); assay: enzyme kinetics, diphenolase activity; format: biochemical; details: type-III copper enzyme; read-out: Dopamine / K m
# Source text: as §1
# [6] = target: T6, CgAUS (aurone synthase from Coreopsis grandiflora); assay: enzyme kinetics, diphenolase activity; format: biochemical; details: type-III copper enzyme; read-out: Dopamine / K m
# Source text: as §1
# [7] = substrate: NCCc1ccc(O)cc1; assay: enzyme kinetics, monophenolase activity; format: biochemical, Coreopsis grandiflora; details: type-III copper enzyme
# Source text: enzyme kinetics, monophenolase activity on CgAUS (aurone synthase from Coreopsis grandiflora)
Molecule,Km [7],kcat [7],further results
NCCc1ccc(O)c(O)c1 [dopamine],–,–,Km [1]: 8630 ± 280 µM; Km [2]: 1260 ± 40 µM; Km [3]: 60 µM; Km [4]: 1260 ± 130 µM; Km [5]: 1930 ± 120 µM; Km [6]: 240 ± 20 µM
B1,3590 ± 330 µM,0.55 ± 0.04 s⁻¹,–
B2,1090 ± 90 µM,9.48 ± 0.55 s⁻¹,–
B3,20 ± 0 µM,6.52 ± 0.39 s⁻¹,–
B4,4010 ± 290 µM,8.26 ± 0.48 s⁻¹,–
B5,30900 ± 7270 µM,2.14 ± 0.16 s⁻¹,–
